B1: TPR t1 (parent)
chain: GACCAAUCUGCCCUCAGAGCUCGAGAACAUCUUCGGAUGCAGAGGAGGCAGGCUUCGGUGGCGCGAUAGCGCCAACGUCCUCAACCUCCAAUGCAUCCCACCACAUGAUGAUGCCUGAAGAGCCUUGGUUUUUUG

Variants of: B1
Assay: polymerase ribozyme fitness, log enrichment relative to wild type (log ratio); higher = more active; in vitro selection for triplet polymerase activity
Summary of the method: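 Streptavidin-bead capture of gel-excised extended constructs, followed by RT-PCR, closed a single triplicate in vitro selection round. That round began by annealing PCR-built, transcribed mutant libraries of each subunit of a heterodimeric triplet polymerase ribozyme with a biotinylated primer, the partner subunit and triplets, then incubating them frozen at −7 °C. After Illumina sequencing of inputs and outputs, genotypes needed ≥10 input reads and ≥1 read per output. Fitness is the base-2 logarithm of genotype enrichment over wild-type enrichment, using inverse-variance-weighted replicate averages.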

Variant | polymerase ribozyme fitness (log ratio)
C115G U125A | -1.66
G120A C123A | -0.268
A118G C124G | -0.0684
U112C C124G | 1.79
U126C | -0.485
U126G | -1.7
U126A | -1.69
G107A C114G G128A | -7.24
G120C U126A | -0.0406
G117C U131G | -4.4
U106A G110U U126A U130A | -3.03
A103U A121G C123U | -2.56
G113U G120A U132A | -3.83
U130G U132A | -1.3
A118U G120U U133G | -0.107
U112C C124G G128A | -0.155
C102A U109A | -5.92
G113U U129G | -5.28
C104A G117A | -2.41
C114U G122A | -2.83
A121U U130G | 1.98

Variant | polymerase ribozyme fitness (log ratio)
G113A G122C | -3.36
A105C U109A U133C | -5.16
U112A G120C | -0.182
A111C G127A | -2.45
G110A G127A U134C | -3.29
U106A U112G G117C | -5.9
U109G U132A | -3.91
U125A U133A | -0.956
U125A U133C | -0.0467
U112C G117A | -0.498
C104U A118U U131A | 0.243
C114U G127A | -3.37
G113C C124U | -2.58
U129A U132A | -1.56
C114G G120A G135A | -4.92
C114A A119U | -3.28
A111G G113C | -2.06
G110A G113U | -5.23
U112G U130A | 0.613
C104A G128A | -3.67
U126C U132C | -1.79

Variant | polymerase ribozyme fitness (log ratio)
G127U U130G | -0.841
C115A A119U | -1.26
C104U U106A U109A C114U C123U | -6.98
C124U G127A G135U | -0.796
G113A G128C | -2.85
C124G U133A | 0.826
U112C A118U | 1.35
C104U U130G | -0.0774
U109A G135U | -4.82
C102U U132A | -1.83
C115U G120C | -0.978
U112G G135U | -1.01
A111C G113U | -3.68
C102U G120C | -1.05
A111G | 0.509
A111C | 0.388
A111U | -2.62
G117C U129A | -6.61
U116A U129A | -4.24
A111C C114G | -3.93
A118G G122U | 0.311

Variant | polymerase ribozyme fitness (log ratio)
G113U U133A | -3.57
A119G G120A | 1.35
G107A U125G | -5.84
A105U G117A | -4.52
A108G U112A | -2.86
G120U U131A | -1.19
U112C A121G | 2.63
C104G C114G G120A U126C U133G | -5.9
A108U C124A | -4.18
U112A A118U G135A | 1.33
C115A G127U | -2.8
C115A G127A | -0.375
C115A G127C | -1.67
G113U G120A | -2.2
A121C G122U | 0.743
G110U U112C | -2.02
U131A U132C | 0.142
C104U G117A | -0.723
C123G G127A | -0.249
C123A U126A U130G U133G | 0.742
C123U U126A | 0.0607
